Measurements as given in patent US6077686, “Shc proteins” (Mount Sinai Hospital Corporation, dated 2000).

Tests used:
[1] = molecular target: EGFR in living cells (293T cells stimulated with EGF; NIH/3T3 cells transformed by overexpression of the EGFR)
[2] = molecular target: autophosphorylated EGF-receptor (from lysates of EGF-stimulated A431 cells) (human, UniProt P00533, autophosphorylated on tyrosine (sites not given)); assay: binding of GST-PTB to the activated EGFR, normalized to wild type

Molecule	EGF-induced MAPK activity (Gal4-Elk-1 / Gal4-Luc luciferase in 293T cells) [1] [%]	Relative Binding [2]
GST fusion protein of the ShcC PTB domain (wild type) (other) LGPGVTYVVKYLGCIEVLRSMRSLDFSTRTQVTREAISRVCERVPGAKGALKKRKPPSKMLSSILGKSNLQFAGMSISLTISTASLNLRTPDSKQIIANHHMRSISFASGGDPDTTDYVAYVAKDPVNRRACHILECCDGLAQDVIGSIGQAFELRFKQYL		1
GST-ShcC PTB domain mutant G139E/D140N (other) LGPGVTYVVKYLGCIEVLRSMRSLDFSTRTQVTREAISRVCERVPGAKGALKKRKPPSKMLSSILGKSNLQFAGMSISLTISTASLNLRTPDSKQIIANHHMRSISFASGENPDTTDYVAYVAKDPVNRRACHILECCDGLAQDVIGSIGQAFELRFKQYL		0.073
GST-ShcC PTB domain mutant S86C (other) LGPGVTYVVKYLGCIEVLRSMRSLDFSTRTQVTREAISRVCERVPGAKGALKKRKPPCKMLSSILGKSNLQFAGMSISLTISTASLNLRTPDSKQIIANHHMRSISFASGGDPDTTDYVAYVAKDPVNRRACHILECCDGLAQDVIGSIGQAFELRFKQYL		1.2
GST-ShcC PTB domain mutant E63G (other) LGPGVTYVVKYLGCIEVLRSMRSLDFSTRTQVTRGAISRVCERVPGAKGALKKRKPPSKMLSSILGKSNLQFAGMSISLTISTASLNLRTPDSKQIIANHHMRSISFASGGDPDTTDYVAYVAKDPVNRRACHILECCDGLAQDVIGSIGQAFELRFKQYL		0.087
GST-ShcC PTB domain mutant M130I/S132V (other) LGPGVTYVVKYLGCIEVLRSMRSLDFSTRTQVTREAISRVCERVPGAKGALKKRKPPSKMLSSILGKSNLQFAGMSISLTISTASLNLRTPDSKQIIANHHIRVISFASGGDPDTTDYVAYVAKDPVNRRACHILECCDGLAQDVIGSIGQAFELRFKQYL		1
GST-ShcC PTB domain mutant G30R/H128Q (other) LRPGVTYVVKYLGCIEVLRSMRSLDFSTRTQVTREAISRVCERVPGAKGALKKRKPPSKMLSSILGKSNLQFAGMSISLTISTASLNLRTPDSKQIIANQHMRSISFASGGDPDTTDYVAYVAKDPVNRRACHILECCDGLAQDVIGSIGQAFELRFKQYL		1
GST-ShcC PTB domain mutant A136T/C166R (other) LGPGVTYVVKYLGCIEVLRSMRSLDFSTRTQVTREAISRVCERVPGAKGALKKRKPPSKMLSSILGKSNLQFAGMSISLTISTASLNLRTPDSKQIIANHHMRSISFTSGGDPDTTDYVAYVAKDPVNRRACHILECRDGLAQDVIGSIGQAFELRFKQYL		0.12
GST-ShcC PTB domain mutant G32R (other) LGPRVTYVVKYLGCIEVLRSMRSLDFSTRTQVTREAISRVCERVPGAKGALKKRKPPSKMLSSILGKSNLQFAGMSISLTISTASLNLRTPDSKQIIANHHMRSISFASGGDPDTTDYVAYVAKDPVNRRACHILECCDGLAQDVIGSIGQAFELRFKQYL		0.93
GST-ShcC PTB domain mutant A136T (other) LGPGVTYVVKYLGCIEVLRSMRSLDFSTRTQVTREAISRVCERVPGAKGALKKRKPPSKMLSSILGKSNLQFAGMSISLTISTASLNLRTPDSKQIIANHHMRSISFTSGGDPDTTDYVAYVAKDPVNRRACHILECCDGLAQDVIGSIGQAFELRFKQYL		0.16
GST-ShcC PTB domain mutant G32R/A136T/C166R (other) LGPRVTYVVKYLGCIEVLRSMRSLDFSTRTQVTREAISRVCERVPGAKGALKKRKPPSKMLSSILGKSNLQFAGMSISLTISTASLNLRTPDSKQIIANHHMRSISFTSGGDPDTTDYVAYVAKDPVNRRACHILECRDGLAQDVIGSIGQAFELRFKQYL		0.14

Continued, values first:

EGF-induced MAPK activity (Gal4-Elk-1 / Gal4-Luc luciferase in 293T cells) [1] [%]	Relative Binding [2]	Molecule
50		isolated ShcC SH2 domain expressed in cells (HA epitope-tagged SH2 domain)
	1.2	GST-ShcC PTB domain mutant T111I (other) LGPGVTYVVKYLGCIEVLRSMRSLDFSTRTQVTREAISRVCERVPGAKGALKKRKPPSKMLSSILGKSNLQFAGMSISLTISIASLNLRTPDSKQIIANHHMRSISFASGGDPDTTDYVAYVAKDPVNRRACHILECCDGLAQDVIGSIGQAFELRFKQYL
	1	GST-ShcC PTB domain mutant V36M (other) LGPGVTYMVKYLGCIEVLRSMRSLDFSTRTQVTREAISRVCERVPGAKGALKKRKPPSKMLSSILGKSNLQFAGMSISLTISTASLNLRTPDSKQIIANHHMRSISFASGGDPDTTDYVAYVAKDPVNRRACHILECCDGLAQDVIGSIGQAFELRFKQYL
	1.2	GST-ShcC PTB domain mutant T58A (other) LGPGVTYVVKYLGCIEVLRSMRSLDFSTRAQVTREAISRVCERVPGAKGALKKRKPPSKMLSSILGKSNLQFAGMSISLTISTASLNLRTPDSKQIIANHHMRSISFASGGDPDTTDYVAYVAKDPVNRRACHILECCDGLAQDVIGSIGQAFELRFKQYL
	0.81	GST-ShcC PTB domain mutant T118S (other) LGPGVTYVVKYLGCIEVLRSMRSLDFSTRTQVTREAISRVCERVPGAKGALKKRKPPSKMLSSILGKSNLQFAGMSISLTISTASLNLRSPDSKQIIANHHMRSISFASGGDPDTTDYVAYVAKDPVNRRACHILECCDGLAQDVIGSIGQAFELRFKQYL
